From article PMC3828182

How the values were obtained:
[1] = molecular target: FLAG-tagged HPV51 chimera 4 L2 (Ch4L2-FLAG) (human papillomavirus type 51, Ma strain | human papillomavirus type 51, Nu strain) (UniProt P26539)
[2] = molecular target: FLAG-tagged HPV51 chimera 5 L2 (Ch5L2-FLAG) (human papillomavirus type 51, Ma strain | human papillomavirus type 51, Nu strain) (UniProt P26539)

Substance: transport protein particle complex subunit 8 (TRAPPC8) (from UniProt Q9Y2L5 1-1435) (natural protein)
- percent of HeLa cells GFP-positive by flow cytometry after inoculation with HPV51 PsV containing the (untagged) Ch4L2 and a GFP-expression plasmid [1]: 4%
- percent of HeLa cells GFP-positive by flow cytometry after inoculation with HPV51 PsV containing the (untagged) Ch5L2 and a GFP-expression plasmid [2]: 80%
